Assays:
[1] = molecular target: T1, Human CD73 ECD (human, UniProt P21589 27-549); experiment: capture ELISA and direct ELISA, normalized Fab supernatants
T1 construct: Biotinylated in some assays; also called human CD73 extracellular domain; huCD73
T1 sequence: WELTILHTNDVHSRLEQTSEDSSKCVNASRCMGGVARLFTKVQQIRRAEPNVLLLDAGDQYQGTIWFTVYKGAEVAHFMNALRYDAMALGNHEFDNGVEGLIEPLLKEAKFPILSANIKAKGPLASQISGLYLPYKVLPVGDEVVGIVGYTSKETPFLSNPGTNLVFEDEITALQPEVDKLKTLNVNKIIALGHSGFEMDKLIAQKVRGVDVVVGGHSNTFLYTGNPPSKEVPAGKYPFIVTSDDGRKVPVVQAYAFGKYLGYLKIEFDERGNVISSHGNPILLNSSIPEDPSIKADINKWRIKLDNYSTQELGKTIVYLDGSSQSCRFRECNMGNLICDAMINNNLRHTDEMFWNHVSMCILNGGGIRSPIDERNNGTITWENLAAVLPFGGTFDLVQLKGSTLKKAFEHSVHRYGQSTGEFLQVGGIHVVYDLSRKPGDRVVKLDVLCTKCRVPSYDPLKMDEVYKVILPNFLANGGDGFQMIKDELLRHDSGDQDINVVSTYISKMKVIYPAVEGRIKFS

[2] = molecular target: T2, Murine CD73 ECD (murine, UniProt Q61503 29-551, limits assumed); experiment: as above
T2 construct: extracellular domain; In-house recombinant ECD; also called murine CD73 extracellular domain; muCD73
T2 sequence (looked up): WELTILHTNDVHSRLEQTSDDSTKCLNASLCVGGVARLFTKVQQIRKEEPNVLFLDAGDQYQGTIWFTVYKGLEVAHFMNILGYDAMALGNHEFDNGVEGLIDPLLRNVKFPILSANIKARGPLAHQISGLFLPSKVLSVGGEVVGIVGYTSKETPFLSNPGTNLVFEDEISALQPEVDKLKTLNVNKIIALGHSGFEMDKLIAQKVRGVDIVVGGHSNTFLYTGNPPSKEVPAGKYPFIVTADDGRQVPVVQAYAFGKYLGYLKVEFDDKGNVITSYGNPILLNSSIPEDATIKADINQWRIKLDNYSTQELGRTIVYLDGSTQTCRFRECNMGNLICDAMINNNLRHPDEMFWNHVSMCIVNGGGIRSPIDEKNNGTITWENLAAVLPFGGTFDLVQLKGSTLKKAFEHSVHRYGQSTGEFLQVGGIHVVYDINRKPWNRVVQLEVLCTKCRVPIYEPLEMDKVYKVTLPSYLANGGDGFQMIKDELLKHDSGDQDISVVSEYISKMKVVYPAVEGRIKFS

[3] = molecular target: T1, Human CD73 ECD; experiment: SPR (Proteon)
[4] = molecular target: T2, Murine CD73 ECD; experiment: SPR (Proteon)
[5] = molecular target: T3, Cynomolgus CD73 ECD (cynomolgus, UniProt A0A2K5V5U7 27-549); experiment: SPR (Proteon)
T3 construct: extracellular domain; also called cyno CD73
T3 sequence: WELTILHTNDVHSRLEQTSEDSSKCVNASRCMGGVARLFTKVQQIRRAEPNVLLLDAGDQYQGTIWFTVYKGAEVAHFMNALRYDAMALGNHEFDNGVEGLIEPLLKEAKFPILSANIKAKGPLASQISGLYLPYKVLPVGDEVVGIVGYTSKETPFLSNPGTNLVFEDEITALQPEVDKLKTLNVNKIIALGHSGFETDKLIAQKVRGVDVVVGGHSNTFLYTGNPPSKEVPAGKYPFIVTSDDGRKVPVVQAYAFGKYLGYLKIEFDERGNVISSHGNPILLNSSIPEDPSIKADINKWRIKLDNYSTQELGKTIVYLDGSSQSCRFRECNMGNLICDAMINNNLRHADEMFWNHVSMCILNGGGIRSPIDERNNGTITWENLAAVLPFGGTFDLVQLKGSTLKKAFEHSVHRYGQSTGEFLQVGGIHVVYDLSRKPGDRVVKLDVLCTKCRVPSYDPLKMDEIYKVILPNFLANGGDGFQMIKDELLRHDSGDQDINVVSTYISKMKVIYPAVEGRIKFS

[6] = molecular target: T4, Human CD73 on cells (MDA-MB-231, Jurkat CD73 knock-in, NCI-H322) (human, UniProt P21589 27-549); experiment: flow cytometry on cells
T4 construct: GPI-anchored native protein; also called native human CD73
T4 sequence: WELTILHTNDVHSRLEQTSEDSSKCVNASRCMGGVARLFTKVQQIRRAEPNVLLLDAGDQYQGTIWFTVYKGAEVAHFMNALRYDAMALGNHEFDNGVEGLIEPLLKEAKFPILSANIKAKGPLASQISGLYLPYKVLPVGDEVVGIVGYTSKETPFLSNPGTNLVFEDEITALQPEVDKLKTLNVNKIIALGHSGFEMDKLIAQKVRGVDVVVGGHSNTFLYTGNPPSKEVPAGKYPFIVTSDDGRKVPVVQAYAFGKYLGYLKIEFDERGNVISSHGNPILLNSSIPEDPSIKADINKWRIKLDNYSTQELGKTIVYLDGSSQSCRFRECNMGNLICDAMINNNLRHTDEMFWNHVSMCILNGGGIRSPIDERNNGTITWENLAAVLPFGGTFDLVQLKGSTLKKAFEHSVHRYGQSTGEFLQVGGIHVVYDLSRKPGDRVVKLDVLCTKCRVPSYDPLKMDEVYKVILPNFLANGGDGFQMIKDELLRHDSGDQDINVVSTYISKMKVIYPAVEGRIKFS

[7] = molecular target: T5, Murine CD73 on cells (4T1, Jurkat mCD73 knock-in) (murine, UniProt Q61503 29-551); experiment: flow cytometry on cells
T5 construct: whole, on cells; also called 4T1 (murine)
T5 sequence (looked up): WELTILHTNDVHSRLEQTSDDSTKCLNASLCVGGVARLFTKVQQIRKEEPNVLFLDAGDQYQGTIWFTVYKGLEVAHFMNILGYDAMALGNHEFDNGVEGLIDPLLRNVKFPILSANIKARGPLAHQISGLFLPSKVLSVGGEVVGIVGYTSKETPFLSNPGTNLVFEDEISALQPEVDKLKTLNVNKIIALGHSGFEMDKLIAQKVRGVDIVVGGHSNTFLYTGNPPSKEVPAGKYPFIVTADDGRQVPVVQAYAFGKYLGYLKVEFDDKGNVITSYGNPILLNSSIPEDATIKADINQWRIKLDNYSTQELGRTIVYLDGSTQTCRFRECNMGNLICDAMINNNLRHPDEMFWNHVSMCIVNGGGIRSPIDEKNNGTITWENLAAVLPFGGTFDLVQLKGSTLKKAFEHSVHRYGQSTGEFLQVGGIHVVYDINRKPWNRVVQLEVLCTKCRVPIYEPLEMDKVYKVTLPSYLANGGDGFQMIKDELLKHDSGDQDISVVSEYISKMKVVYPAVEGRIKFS

[8] = molecular target: T6, Cynomolgus CD73 on MK-1 cells (cynomolgus, UniProt A0A2K5V5U7 27-549); experiment: flow cytometry on cells
T6 construct: whole, on cells; also called MK-1 (cyno)
T6 sequence: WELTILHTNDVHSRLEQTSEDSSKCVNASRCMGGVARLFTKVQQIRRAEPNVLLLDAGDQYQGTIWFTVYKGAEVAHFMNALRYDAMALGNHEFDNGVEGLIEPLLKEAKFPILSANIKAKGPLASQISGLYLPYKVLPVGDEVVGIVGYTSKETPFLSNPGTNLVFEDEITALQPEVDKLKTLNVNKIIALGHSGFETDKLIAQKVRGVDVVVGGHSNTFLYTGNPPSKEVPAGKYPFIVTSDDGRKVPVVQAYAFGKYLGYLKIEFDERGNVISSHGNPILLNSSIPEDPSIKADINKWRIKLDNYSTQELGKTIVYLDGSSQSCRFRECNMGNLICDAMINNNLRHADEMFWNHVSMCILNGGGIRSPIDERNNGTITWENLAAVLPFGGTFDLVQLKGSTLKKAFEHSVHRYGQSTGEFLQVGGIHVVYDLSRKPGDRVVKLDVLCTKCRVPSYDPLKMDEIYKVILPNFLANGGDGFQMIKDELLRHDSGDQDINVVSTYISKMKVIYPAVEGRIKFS

[9] = molecular target: T1, Human CD73 ECD; experiment: cell-based or functional assay
[10] = molecular target: T4, Human CD73 on cells (MDA-MB-231, Jurkat …); experiment: cell-based or functional assay
[11] = molecular target: T1, Human CD73 ECD; experiment: binding assay, format not stated
[12] = molecular target: T2, Murine CD73 ECD; experiment: binding assay, format not stated
[13] = molecular target: T3, Cynomolgus CD73 ECD; experiment: binding assay, format not stated

B1: Clone D3 Fab (Fab, V domains shown)
VH: EVQLLESGGGLVQPGGSLRLSCAASGFTFSSYAYSWVRQAPGKGLEWVSAISGSGGRTYYADSVKGRFTISRDNSKNTLYLQMNSLRAEDTAVYYCARLGYSTIDLWGRGTLVTVSS
VL: QSVLTQPPSASGTPGQRVTISCSGSLSNIGRNPVNWYQQLPGTAPKLLIYLDNLRLSGVPDRFSGSKSGTSASLAISGLQSEDEADYYCATWDDSLIGWLFGGGTKLTVL
notes: Bacterial Fab from the combinatorial library
- binding result [1]: binds
- binding result [2]: binds

B2: C1 (IgG1-TM) (antibody, V domains shown)
VH: EVQLLESGGGLVQPGGSLRLSCAASGFTFSSYAYSWVRQAPGKGLEWVSAISGSGGSTYYADSVKGRFTISRDNSKNTLYLQMNSLRAEDTAVYYCARLGYSTIDKWGRGTLVTVSS
VL: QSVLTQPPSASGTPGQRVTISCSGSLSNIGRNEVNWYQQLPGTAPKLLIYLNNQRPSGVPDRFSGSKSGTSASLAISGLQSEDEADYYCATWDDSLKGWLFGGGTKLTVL
notes: IgG1-TM format; also called clone 10 C1
- Kd [3]: 0.029 nM
- Kd [4]: 6 pM
- Kd [5]: 0.012 nM
- Kd [6]: 0.179 nM
- Kd [7]: 0.095 nM
- Kd [8]: 0.16 nM

B3: CD730021 (antibody, V domains shown)
VH: QVQLQESGPGLVRPSETLSLTCTVSGGSISSSSYYWAWVRQSPGKGLEWIGNIYYRGSTYYNPSLKSRVTMSVDMSKHQFSLKLSSLNAADTAVYYCASLYSGTYVFDYWGRGTLVTVSS
VL: QSVLTQPPSASGTPGQRVTISCSGSRPNIGGNTVNWYQQLPGAAPKLLIYSNSQRPSGVPDRFSGSKYGTSASLAISGLQSDDEADYYCGTWDDSLNGPVFGRGTKLTVL
notes: IgG1-TM format; also called CD730021 antibody
- Enzyme Inhibition, rCD73, 1/EC50 (nM) [9]: 0.0011 nM⁻¹
- Enzyme Inhibition, MDA-MB-231, 1/EC50 (nM) [10]: 0.0095 nM⁻¹
- Internalization, MDA-MB-231, 1/EC50 (nM) [10]: 0.0011 nM⁻¹
- 1/EC50 [11]: 0.00085 nM⁻¹
- 1/EC50 [12]: 0.00057 nM⁻¹
- 1/EC50 [13]: 0.0012 nM⁻¹

B4: CD730046 (antibody, V domains shown)
VH: QVQLVQSGGGVVQPGRSLRLSCAASGFTFSSYGMHWVRQAPGKGLEWVAVISYDGSIKYYADSVKGRFTISRDNSKNSLFLQMNSLRDDDTATYYCARGHLLRIGDIFYYSLDVWGQGTLVTVSS
VL: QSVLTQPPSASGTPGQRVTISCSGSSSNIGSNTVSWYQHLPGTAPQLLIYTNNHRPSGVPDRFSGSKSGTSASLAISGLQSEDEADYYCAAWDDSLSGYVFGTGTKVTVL
notes: IgG1-TM format; also called CD730046 antibody
- Enzyme Inhibition, rCD73, 1/EC50 (nM) [9]: 0 nM⁻¹
- Enzyme Inhibition, MDA-MB-231, 1/EC50 (nM) [10]: 0.081 nM⁻¹
- Internalization, MDA-MB-231, 1/EC50 (nM) [10]: 0 nM⁻¹
- 1/EC50 [11]: 0.0041 nM⁻¹
- 1/EC50 [12]: 0.0052 nM⁻¹
- 1/EC50 [13]: 0.01 nM⁻¹

B5: CD730011 (antibody, V domains shown)
VH: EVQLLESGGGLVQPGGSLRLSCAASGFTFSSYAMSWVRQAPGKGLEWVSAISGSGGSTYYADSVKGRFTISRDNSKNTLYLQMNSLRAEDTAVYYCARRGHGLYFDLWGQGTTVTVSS
VL: NFMLTQPHSVSESPGKTVTISCTRSSGSIASKYVQWYQQRPGSSPMAVIYKDNQRSSGVPDRFSGSIDSSSNSASLTISGLKPEDEADYYCQSYDASNYYVFGTGTKVTVL
notes: IgG1-TM format; also called CD730011 antibody; CD7300011
- Enzyme Inhibition, rCD73, 1/EC50 (nM) [9]: 0 nM⁻¹
- Enzyme Inhibition, MDA-MB-231, 1/EC50 (nM) [10]: 0.00068 nM⁻¹
- Internalization, MDA-MB-231, 1/EC50 (nM) [10]: 0 nM⁻¹
- 1/EC50 [11]: 0.0021 nM⁻¹
- 1/EC50 [12]: 0.0015 nM⁻¹
- 1/EC50 [13]: 0.0027 nM⁻¹

From US20230340152A1 (published 2023)
